Laboratory results: patent US20020086331

Target: T1, Nit domain of C. elegans NitFhit, O76463
T1 chain: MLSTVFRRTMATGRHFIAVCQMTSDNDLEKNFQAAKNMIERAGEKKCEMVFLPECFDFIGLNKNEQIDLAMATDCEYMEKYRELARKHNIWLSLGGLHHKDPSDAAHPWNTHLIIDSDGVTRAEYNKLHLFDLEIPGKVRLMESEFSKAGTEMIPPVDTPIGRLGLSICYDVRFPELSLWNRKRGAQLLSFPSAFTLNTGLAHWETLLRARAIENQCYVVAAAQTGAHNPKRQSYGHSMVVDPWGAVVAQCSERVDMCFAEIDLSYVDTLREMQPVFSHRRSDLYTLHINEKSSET

B1: Fhit domain of C. elegans NitFhit (protein)
chain: GGLKFARFNIPADHIFYSTPHSFVFVNLKPVTDGHVLVSPKRVVPRLTDLTDAETADLFIVAKKVQAMLEKHHNVTSTTICVQDGKDAGQTVPHVHIHILPRRAGDFGDNEIYQKLASHDKEPERKPRSNEQMAEEAVVYRNLM
Question: Which “activity of worm NitFhit on ApppBODIPY relative to human Fhit (kcat/Km)” value does the source give for B1 here?
Answer: The value was “worm NitFhit displays only 22% of the activity of human Fhit on ApppBODIPY”.

Question: And the “activity of worm NitFhit on GpppBODIPY relative to human Fhit (kcat/Km)” value?
Answer: Its value is “it displays 109% of the activity of human Fhit on GpppBODIPY”.
